# Positions count from the first letter of the chain named.
# B1: Ha22-2(2,4)6.1 MAb (antibody, human IgG1, kappa, V domains shown)
# VH: EVQLVESGGGLVQPGGSLRLSCAASGFTFSSYNMNWVRQAPGKGLEWVSYISSSSSTIYYADSVKGRFTISRDNAKNSLSLQMNSLRDEDTAVYYCARAYYYGMDVWGQGTTVTVSS
# VL: DIQMTQSPSSVSASVGDRVTITCRASQGISGWLAWYQQKPGKAPKFLIYAASTLQSGVPSRFSGSGSGTDFTLTISSLQPEDFATYYCQQANSFPPTFGGGTKVEIKR
# notes: Fully human IgG1 kappa from XenoMouse; Used biotinylated in the Western blot; also called 191P4D12 MAb Ha22-2(2,4)6.1; Ha22-(2,4)6.1 MAb
# What was measured:
# [1] = molecular target: T1, Rat 191P4D12 (on PC3 cells) (rat, UniProt D3ZET1 31-509); experiment: FACS on PC3 cells expressing the rat ortholog
# T1 construct: whole, on cells; also called PC3-rat-191P4D12; Rat ortholog
# T1 sequence: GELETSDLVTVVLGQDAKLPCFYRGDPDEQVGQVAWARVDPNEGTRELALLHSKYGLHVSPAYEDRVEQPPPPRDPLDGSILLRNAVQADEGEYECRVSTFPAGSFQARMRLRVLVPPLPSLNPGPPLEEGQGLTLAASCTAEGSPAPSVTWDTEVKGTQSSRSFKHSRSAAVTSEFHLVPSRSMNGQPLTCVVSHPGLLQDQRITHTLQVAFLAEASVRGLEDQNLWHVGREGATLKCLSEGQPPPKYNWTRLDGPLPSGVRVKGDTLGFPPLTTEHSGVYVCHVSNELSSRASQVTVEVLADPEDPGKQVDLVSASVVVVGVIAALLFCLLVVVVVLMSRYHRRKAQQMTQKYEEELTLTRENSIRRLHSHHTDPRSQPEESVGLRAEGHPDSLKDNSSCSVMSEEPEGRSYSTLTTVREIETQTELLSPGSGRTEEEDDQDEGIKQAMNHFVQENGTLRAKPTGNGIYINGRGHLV
# Text: (§1) The 191P4D12 protein of human, cynomolgus, rat and murine origin was overexpressed recombinantly in a PC3 cell line to determine cross-reactivity of Ha22-2(2,4)6.1 to these orthologs. It was shown that Ha22-2(2,4)6.1 strongly cross-reacts with cynomolgus and rat orthologs of 191P4D12 (FIG. 23).
# [2] = molecular target: T2, 191P4D12 (human, wild type, on cells) (human, UniProt Q96NY8 32-510); experiment: FACS on PC3-191P4D12 cells
# T2 construct: 510 amino acid ORF expressed on PC3, RAT/Rat1(E) cells and present in cancer cell lines and tumor specimens; also called human 191P4D12; wild-type 191P4D12
# T2 sequence: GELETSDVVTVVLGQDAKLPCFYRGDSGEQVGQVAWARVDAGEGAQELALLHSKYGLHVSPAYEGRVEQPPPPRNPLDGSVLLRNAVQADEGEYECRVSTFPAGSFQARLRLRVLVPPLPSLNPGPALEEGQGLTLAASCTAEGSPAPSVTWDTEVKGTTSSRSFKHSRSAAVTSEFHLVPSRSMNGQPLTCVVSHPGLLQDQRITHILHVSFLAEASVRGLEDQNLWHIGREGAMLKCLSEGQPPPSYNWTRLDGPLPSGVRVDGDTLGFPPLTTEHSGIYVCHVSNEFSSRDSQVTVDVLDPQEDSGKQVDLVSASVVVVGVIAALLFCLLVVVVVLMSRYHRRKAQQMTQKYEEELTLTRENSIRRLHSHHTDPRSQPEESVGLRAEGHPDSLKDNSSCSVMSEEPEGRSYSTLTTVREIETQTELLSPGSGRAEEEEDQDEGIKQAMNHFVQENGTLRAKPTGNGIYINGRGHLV
# Text: as §1
# [3] = molecular target: T2, 191P4D12 (human, wild type, on cells); experiment: FACS titration of Ha22-2(2,4)6.1 on PC3 cells expressing 191P4D12
# [4] = molecular target: T3, Murine ortholog of 191P4D12, N90S mutant (on PC3 cells) (mouse, UniProt Q8R007 31-508); experiment: FACS titration of Ha22-2(2,4)6.1 on PC3 cells expressing mouse 191P4D12 N90S
# T3 construct: whole, on cells; also called murine mutant ortholog
# T3 sequence (looked up): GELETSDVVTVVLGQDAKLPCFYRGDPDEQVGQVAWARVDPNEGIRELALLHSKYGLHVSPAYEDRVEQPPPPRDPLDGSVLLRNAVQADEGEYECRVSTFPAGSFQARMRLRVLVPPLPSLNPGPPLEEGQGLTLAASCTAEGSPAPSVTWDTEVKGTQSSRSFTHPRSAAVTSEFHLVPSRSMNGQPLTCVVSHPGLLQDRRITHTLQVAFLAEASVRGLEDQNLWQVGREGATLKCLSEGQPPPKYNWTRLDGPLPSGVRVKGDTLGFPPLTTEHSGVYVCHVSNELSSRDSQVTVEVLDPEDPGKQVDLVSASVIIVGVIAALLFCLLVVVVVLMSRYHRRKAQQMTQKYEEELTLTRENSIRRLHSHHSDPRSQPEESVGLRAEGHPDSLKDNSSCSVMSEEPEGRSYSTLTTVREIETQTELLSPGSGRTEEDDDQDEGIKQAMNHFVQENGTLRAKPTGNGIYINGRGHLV
# [5] = molecular target: T4, Cynomolgus 191P4D12 (on PC3 cells) (cynomolgus monkey, UniProt A0A2K5WES1 32-510); experiment: FACS titration on PC3 cells expressing the cynomolgus ortholog
# T4 construct: also called PC3-Cynomolgus-191P4D12; Cyno ortholog
# T4 sequence: T2 sequence with V39A, I230V, A437T
binder,measurement,setting,value
B1,EC50,[1],0.44 nM
same,EC50,[2],0.28 nM
same,EC50 (read off the curve),[3],~0.6 nM
same,EC50 (read off the curve),[4],~0.4 nM
same,EC50 (read off the curve),[5],~0.3 nM

# From patent US20260034234A1 (AGENSYS, published 2026)
